Data on one substance can be found in patent publication EP1141254B1.

Assay in all cases: cell-based or functional assay
For test [1], the target named is 980903 (XM1): purified mutant of Bacillus sub. wild type xylanase expressed in E. coli.
Test [2] deals with 980601 (BX): purified preparation of Danisco's new bacterial xylanase expressed in E. coli (Bacillus subtilis) (UniProt P18429).
Test [3] concerns the target 980603 (Röhm): purified preparation of Frimond's Belase xylanase (identical to Röhm's) (Bacillus subtilis).

endogenous endo-β-1,4-xylanase inhibitor from wheat flour, sequence (main, form in doubt): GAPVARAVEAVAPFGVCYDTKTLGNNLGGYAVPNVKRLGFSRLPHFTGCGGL
endogenous endo-β-1,4-xylanase inhibitor from wheat flour, sequence (main, form in doubt): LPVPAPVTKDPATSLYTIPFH

“endogenous endo-β-1,4-xylanase inhibitor from wheat flour” had a residual activity of XM1 after incubation with flour extract, relative to that of XM2 in test [1] of 2.5 fold. Further, in test [2], the Inhibition, % (inhibitor extracted from flour 98002) came out at 67%; the Inhibition, % (inhibitor extracted from flour 98026) was 75%; the OD 590 in the inhibitor assay with inhibitor extract from flour 98026 (without inhibitor: 0.675) was determined as 0.165 OD 590; the Residual activity, % (inhibitor extract from flour 98026) worked out at 24.4%. In test [2], the Rest act., % (average of flours 98002 and 98026) worked out at 29%; the Rest act., % (inhibitor extracted from flour 98002) was 33%; the Rest act., % (inhibitor extracted from flour 98026) worked out at 25%; the Vmax from the Lineweaver-Burk plot of xylanase 980601 with and without inhibitor (relative OD 590) (relative OD 590) was found to be 1.19. In test [3], this substance yielded an Inhibition, % (inhibitor extracted from flour 98002) of 60.8%; an Inhibition, % (inhibitor extracted from flour 98026) of 61.3%; a Rest act., % (average of flours 98002 and 98026) of 39%; a Rest act., % (inhibitor extracted from flour 98002) of 39.2%. Further, the Rest act., % (inhibitor extracted from flour 98026) in test [3] is 38.7%.
